Assay results from PMC2244645 (2007).

Target: alpha-synuclein (Homo sapiens, UniProt P37840)
Experiment: SPR

B1: PTYF peptide (immobilized with added N-terminal alanine) (peptide)
chain: APTYF
Kd: > 190 µM

B2: QSTQ peptide (immobilized with added N-terminal alanine) (peptide)
chain: AQSTQ
Kd: 19 µM
